Test results published in IntAct's records for PubMed 18818696.

B1: Protein SGT1 homolog (Homo sapiens), Q9Y2Z0-2 (parent)
chain: MAAAAAGTATSQRFFQSFSDALIDEDPQAALEELTKALEQKPDDAQYYCQRAYCHILLGNYCVAVADAKKSLELNPNNSTAMLRKGICEYHEKNYAAALETFTEGQKLDSADANFSVWIKRCQEAQNGSESEVWTHQSKIKYDWYQTESQVVITLMIKNVQKNDVNVEFSEKELSALVKLPSGEDYNLKLELLHPIIPEQSTFKVLSTKIEIKLKKPEAVRWEKLEGQGDVPTPKQFVADVKNLYPSSSPYTRNWDKLVGEIKEEEKNEKLEGDAALNRLFQQIYSDGSDEVKRAMNKSFMESGGTVLSTNWSDVGKRKVEINPPDDMEWKKY

Variants of: B1
Conditions: with skp1_human SKP1, P63208
Chain of skp1_human SKP1, P63208 (P63208 whole entry): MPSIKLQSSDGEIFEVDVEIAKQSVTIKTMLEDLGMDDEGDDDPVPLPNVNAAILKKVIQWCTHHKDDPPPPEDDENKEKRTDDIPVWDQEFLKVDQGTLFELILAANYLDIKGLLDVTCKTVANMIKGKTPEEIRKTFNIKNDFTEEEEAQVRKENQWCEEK

| effect of a mutation on the interaction | Variant |
| --- | --- |
| increasing interaction | Y145R |
